Usually Kd stands for a measure of binding affinity in units of concentration. Low readings indicate higher affinity, high ones lower affinity.

This note sets out measurements from article PMC3025578.

For one data set, the target named is T1, BamHI (Bacillus amyloliquefaciens, UniProt P23940 1-213).
T1 sequence: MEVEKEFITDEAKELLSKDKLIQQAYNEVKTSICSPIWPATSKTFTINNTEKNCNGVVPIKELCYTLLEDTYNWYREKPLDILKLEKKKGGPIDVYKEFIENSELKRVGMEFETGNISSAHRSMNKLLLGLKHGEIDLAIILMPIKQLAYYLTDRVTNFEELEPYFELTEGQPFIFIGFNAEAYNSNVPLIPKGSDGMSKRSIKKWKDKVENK
The data set is described as follows: fluorescence anisotropy. Background: In fluorescence polarisation assays a small probe gives low polarisation when free and higher when bound to something large.

The target in data set [1] is T2, OkrAI (Oceanospirillum kriegii, UniProt E2JKI3 1-194).
T2 sequence: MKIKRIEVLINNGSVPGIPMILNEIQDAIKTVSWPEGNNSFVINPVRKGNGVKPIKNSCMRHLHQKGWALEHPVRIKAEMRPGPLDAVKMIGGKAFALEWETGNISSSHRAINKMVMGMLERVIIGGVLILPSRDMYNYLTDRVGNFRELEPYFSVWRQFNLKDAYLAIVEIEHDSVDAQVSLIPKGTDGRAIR
The data set is described as follows: fluorescence anisotropy.

For data set [2], the target named is T2, OkrAI. The data set is described as follows: X-ray crystallography.

B1: 20-mer cognate duplex (dsDNA)
DNA 1: TATGAGCGGATCCTTACGAG
DNA 2: CTCGTAAGGATCCGCTCATA
Consider B1, for which the Kd was 8.3 nM with BamHI and 12.9 nM with OkrAI [1].

B2: palindromic 12-mer (dsDNA)
DNA 1: TATGGATCCATA
DNA 2: TATGGATCCATA
As for B2, in the data set with OkrAI [2], the binding result was “binds”.
